Results as given in patent US20260015426A1 (23ANDME, published 2026).
Changes are numbered by the printed parent chain. In names and notes the source's numbering stands.

Legend:
[1] = target: T1, hu-M-IL1RAP construct, positions S21-T367 (extracellular domain of the membrane form of human IL1RAP) (human, UniProt Q9NPH3 21-367); experiment: SPR, against YKD
T1 construct: Biotinylated when captured on the Biacore chip
T1 sequence: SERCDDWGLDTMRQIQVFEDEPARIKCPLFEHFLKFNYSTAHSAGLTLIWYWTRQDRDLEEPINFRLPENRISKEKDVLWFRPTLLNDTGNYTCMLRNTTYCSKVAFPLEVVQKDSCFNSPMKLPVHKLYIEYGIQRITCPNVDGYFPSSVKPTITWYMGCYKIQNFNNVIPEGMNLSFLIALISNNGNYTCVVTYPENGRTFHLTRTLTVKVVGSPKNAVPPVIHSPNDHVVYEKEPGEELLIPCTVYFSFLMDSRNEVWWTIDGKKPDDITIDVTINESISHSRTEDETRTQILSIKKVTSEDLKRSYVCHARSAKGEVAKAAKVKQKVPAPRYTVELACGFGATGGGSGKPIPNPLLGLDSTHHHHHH

[2] = target: T2, cyno-M-IL1RAP construct, positions S21-T367 (cynomolgus monkey, UniProt P59822 21-367 (rhesus entry)); experiment: SPR, against YKD
T2 construct: Biotinylated when captured on the Biacore chip; also called cy-M-IL1RAP
T2 sequence: T1 sequence with L183F, T273P, K326T

[3] = target: T3, human IL1RAP (hu-IL1RAP) on human cells (human, UniProt Q9NPH3 21-570); experiment: cell-based or functional assay
T3 sequence: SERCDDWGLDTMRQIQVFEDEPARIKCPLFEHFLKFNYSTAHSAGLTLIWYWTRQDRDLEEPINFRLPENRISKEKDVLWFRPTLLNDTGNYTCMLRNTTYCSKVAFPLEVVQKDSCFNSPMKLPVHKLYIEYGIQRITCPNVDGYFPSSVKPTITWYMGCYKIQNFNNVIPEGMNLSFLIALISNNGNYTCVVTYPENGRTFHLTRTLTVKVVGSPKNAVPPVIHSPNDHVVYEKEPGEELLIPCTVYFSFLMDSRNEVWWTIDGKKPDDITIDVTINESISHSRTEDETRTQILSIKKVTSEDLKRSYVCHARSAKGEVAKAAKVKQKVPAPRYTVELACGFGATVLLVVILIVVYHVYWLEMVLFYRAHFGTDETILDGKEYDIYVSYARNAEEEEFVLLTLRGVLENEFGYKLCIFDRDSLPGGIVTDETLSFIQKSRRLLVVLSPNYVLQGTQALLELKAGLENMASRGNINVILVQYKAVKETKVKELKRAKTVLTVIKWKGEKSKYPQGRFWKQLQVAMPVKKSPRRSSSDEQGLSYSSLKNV

[4] = target: T1, hu-M-IL1RAP construct, positions …; experiment: SPR, IgG analyte (apparent), pH 7.4, 37 C
[5] = target: T2, cyno-M-IL1RAP construct, positions …; experiment: SPR, IgG analyte (apparent), pH 7.4, 37 C
[6] = target: T4, biotinylated human FcRn (Acro biosystems, catalogue number FCN-H52W7) (human, UniProt P55899 24-297; P61769 21-119, biotinylated); experiment: SPR steady state, FcRn captured, 25 C, pH 6.0; pH 6.0
T4 construct: Bought reagent; also called hu-FcRn

[7] = target: T5, biotinylated cyno FcRn (Acro biosystems, catalogue number FCM-C5284) (cynomolgus monkey, UniProt Q8SPV9 24-297; Q8SPW0 21-119, limits assumed, biotinylated); experiment: as above
T5 construct: Bought reagent

[8] = target: T1, hu-M-IL1RAP construct, positions …; experiment: SPR, against YIS
[9] = target: T2, cyno-M-IL1RAP construct, positions …; experiment: SPR, against YIS
[10] = target: T1, hu-M-IL1RAP construct, positions …; experiment: SPR, Fab analyte, 25 C
[11] = target: T1, hu-M-IL1RAP construct, positions …; experiment: SPR, Fab against parent Fab
[12] = target: T1, hu-M-IL1RAP construct, positions …; experiment: phage display selection of affinity maturation libraries + NGS; enrichment of the mutation Y30W (VL)
[13] = target: T1, hu-M-IL1RAP construct, positions …; experiment: phage display selection of affinity maturation libraries + NGS; enrichment of the mutation W92L (VL)
[14] = target: T1, hu-M-IL1RAP construct, positions …; experiment: SPR, Fab analyte
[15] = target: T1, hu-M-IL1RAP construct, positions …; experiment: SPR, Fab analyte, 37 C
[16] = target: T3, human IL1RAP (hu-IL1RAP) on human cells; experiment: cell-based or functional assay; remark: listed apart in the source
[17] = target: T1, hu-M-IL1RAP construct, positions …; experiment: phage display selection of affinity maturation libraries + NGS; enrichment of the mutation W92K (VL)
[18] = target: T1, hu-M-IL1RAP construct, positions …; experiment: phage display selection of affinity maturation libraries + NGS; enrichment of the mutation A51R (VL)
[19] = target: T1, hu-M-IL1RAP construct, positions …; experiment: phage display selection of affinity maturation libraries + NGS; enrichment of the mutation L33G (VL)

T4 sequence (P55899 24-297 limits assumed, chain 1 of 2): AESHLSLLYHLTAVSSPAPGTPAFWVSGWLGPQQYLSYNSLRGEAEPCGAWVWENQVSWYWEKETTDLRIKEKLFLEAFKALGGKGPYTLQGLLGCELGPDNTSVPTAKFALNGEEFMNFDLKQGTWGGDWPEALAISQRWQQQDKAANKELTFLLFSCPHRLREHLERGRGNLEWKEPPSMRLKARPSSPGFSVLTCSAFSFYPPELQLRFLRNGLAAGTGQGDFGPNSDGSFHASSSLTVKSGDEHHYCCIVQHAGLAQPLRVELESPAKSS
T4 sequence (P61769 21-119 limits assumed, chain 2 of 2): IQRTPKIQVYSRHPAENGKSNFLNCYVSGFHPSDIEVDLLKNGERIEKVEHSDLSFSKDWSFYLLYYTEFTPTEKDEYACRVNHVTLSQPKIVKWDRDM

B1: h11C5 variant YKD/YTE (antibody, human IgG1, kappa, N297G)
heavy: EVQLVESGGGLVQPGGSLRLSCAASGFTFSNYAMSWVRQAPGKGLEWVATVTEGGDYNYYLDDVKGRFTISRDNAKNSLYLQMNSLRAEDTAVYYCARDDWPYFFDYWGQGTLVTVSSASTKGPSVFPLAPSSKSTSGGTAALGCLVKDYFPEPVTVSWNSGALTSGVHTFPAVLQSSGLYSLSSVVTVPSSSLGTQTYICNVNHKPSNTKVDKKVEPKSCDKTHTCPPCPAPELLGGPSVFLFPPKPKDTLYITREPEVTCVVVDVSHEDPEVKFNWYVDGVEVHNAKTKPREEQYGSTYRVVSVLTVLHQDWLNGKEYKCKVSNKALPAPIEKTISKAKGQPREPQVYTLPPSRDELTKNQVSLTCLVKGFYPSDIAVEWESNGQPENNYKTTPPVLDSDGSFFLYSKLTVDKSRWQQGNVFSCSVMHEALHNHYTQKSLSLSPGK
light: DIQMTQSPSSLSASVGDRVTITCRASENIYSNLAWYQQKPGKSPKLLVYGYKNLADGVPSRFSGSGSGTDYTLTISSLQPEDFATYYCQHFKTTPRTFGGGTKVEIKRTVAAPSVFIFPPSDEQLKSGTASVVCLLNNFYPREAKVQWKVDNALQSGNSQESVTEQDSKDSTYSLSSTLTLSKADYEKHKVYACEVTHQGLSSPVTKSFNRGEC
notes: YKD with M252Y/S254T/T256E (Eu index) in the Fc; N297G; also called 11C5-YKD/YTE; YKDNTE
- KD YTE/KD Parental [1]: 0.84 ratio
- KD YTE/KD Parental [2]: 0.98 ratio
- CD4+ T cells, IL-33+IL-12 stimulated IFN-γ, IC50 [3]: 44 nM
- HEK-Blue, IL-1β, IC50 [3]: 0.51 nM
- HEK-Blue, IL-33, % inhibition at 100 nM [3]: 97%
- HEK-Blue, IL-33, IC50 [3]: 3.3 nM
- HEK-Blue, IL-36β, IC50 [3]: 0.9 nM
- HEKn, IL-36β stimulated IL-8, IC50 [3]: 1.16 nM
- NK cells, IL-33+IL-12 stimulated IFN-γ, IC50 [3]: 1.32 nM
- PHLF, IL-1α stimulated IL-8, IC50 [3]: 6.47 nM
- PHLF, IL-36β stimulated IL-8, IC50 [3]: 0.5 nM
- basophils, IL-33 stimulated p38 phosphorylation, IC50 [3]: 41 nM
- monocytes, IL-1β stimulated IL-6, IC50 [3]: 0.158 nM
- Kd [4]: 0.0254 nM
- koff [4]: 5.12e-05 s⁻¹
- kon [4]: 2.02e+06 M⁻¹ s⁻¹
- Kd [5]: 0.0219 nM
- koff [5]: 4.9e-05 s⁻¹
- kon [5]: 2.24e+06 M⁻¹ s⁻¹
- Kd [6]: 130 nM
- Kd [7]: 21.4 nM

B2: h11C5 variant YIS/YTE (antibody, human IgG1, kappa, N297G)
heavy: B1 heavy with V51S, D100R
light: B1 light with K92I
notes: YIS with M252Y/S254T/T256E (Eu index) in the Fc; N297G; also called 11C5-YIS/YTE
- KD YTE/KD Parental [8]: 0.99 ratio
- KD YTE/KD Parental [9]: 0.69 ratio
- Kd [4]: 0.013 nM
- koff [4]: 4.43e-05 s⁻¹
- kon [4]: 3.42e+06 M⁻¹ s⁻¹
- Kd [5]: 0.00798 nM
- koff [5]: 3.07e-05 s⁻¹
- kon [5]: 3.85e+06 M⁻¹ s⁻¹

B3: K1 Fab (VL Y30W) (Fab, V domains shown)
VH: EVQLVESGGGLVQPGGSLRLSCAASGFTFSNYAMSWVRQAPGKGLEWVATVTEGGDYNYYLDDVKGRFTISRDNAKNSLYLQMNSLRAEDTAVYYCARDRWPYFFDYWGQGTLVTVSS
VL: DIQMTQSPSSLSASVGDRVTITCRASENIWSNLAWYQQKPGKSPKLLVYGAKNLADGVPSRFSGSGSGTDYTLTISSLQPEDFATYYCQHFWTTPRTFGGGTKVEIK
notes: Fab with 8xHis tag
- Kd [10]: 0.0372 nM
- koff [10]: 0.00018 s⁻¹
- kon [10]: 4.82e+06 M⁻¹ s⁻¹
- Fold Improvement in KD @ 25° C. [11]: 9.06 fold
- Enrichment ratio (at the highest selection stringency) [12]: 3.52 ratio

B4: K4 Fab (VL W92L) (Fab, V domains shown)
VH: B3 VH
VL: B3 VL with W30Y, W92L
notes: Fab with 8xHis tag
- Kd [10]: 0.147 nM
- koff [10]: 0.000751 s⁻¹
- kon [10]: 5.12e+06 M⁻¹ s⁻¹
- Fold Improvement in KD @ 25° C. [11]: 2.29 fold
- Enrichment ratio (at the highest selection stringency) [13]: 0.416 ratio

B5: K13 Fab (VL A51Y/W92I) (Fab, V domains shown)
VH: B3 VH
VL: B3 VL with W30Y, A51Y, W92I
notes: Fab with 8xHis tag
- fold improvement of affinity over the parental Fab [14]: 9 fold
- Kd [10]: 0.00709 nM
- koff [10]: 4.36e-05 s⁻¹
- kon [10]: 6.15e+06 M⁻¹ s⁻¹
- Kd [15]: 0.0293 nM
- koff [15]: 0.000117 s⁻¹
- kon [15]: 4.01e+06 M⁻¹ s⁻¹
- HEK-Blue, IL-1β, % inhibition at 100 nM (Fab) [16]: 100%
- HEK-Blue, IL-1β, IC50 (Fab) [16]: 0.94 nM
- HEK-Blue, IL-33, % inhibition at 100 nM (Fab) [16]: 98%
- HEK-Blue, IL-33, IC50 (Fab) [16]: 3.17 nM
- HEK-Blue, IL-36α, % inhibition at 100 nM (Fab) [16]: 100%
- HEK-Blue, IL-36α, IC50 (Fab) [16]: 0.884 nM

B6: K3 Fab (VL W92K) (Fab, V domains shown)
VH: B3 VH
VL: B3 VL with W30Y, W92K
notes: Fab with 8xHis tag
- Kd [10]: 0.0523 nM
- koff [10]: 0.000198 s⁻¹
- kon [10]: 3.78e+06 M⁻¹ s⁻¹
- Fold Improvement in KD @ 25° C. [11]: 6.44 fold
- Enrichment ratio (at the highest selection stringency) [17]: 3.31 ratio

B7: K7 Fab (VL A51R) (Fab, V domains shown)
VH: B3 VH
VL: B3 VL with W30Y, A51R
notes: Fab with 8xHis tag
- Kd [10]: 0.0119 nM
- koff [10]: 6.26e-05 s⁻¹
- kon [10]: 5.25e+06 M⁻¹ s⁻¹
- Fold Improvement in KD @ 25° C. [11]: 28.3 fold
- Enrichment ratio (at the highest selection stringency) [18]: 2.89 ratio

B8: K2 Fab (VL L33G) (Fab, V domains shown)
VH: B3 VH
VL: B3 VL with W30Y, L33G
notes: Fab with 8xHis tag
- Kd [10]: 0.0346 nM
- koff [10]: 0.000158 s⁻¹
- kon [10]: 4.57e+06 M⁻¹ s⁻¹
- Fold Improvement in KD @ 25° C. [11]: 9.74 fold
- Enrichment ratio (at the highest selection stringency) [19]: 1.71 ratio
